Assay results from PMC3034019 (The EMBO Journal, 2011).

B1: EVH2 domain of Dictyostelium discoideum VASP (DdEVH2) (domain or fragment)
chain: GRNALLGSIENFSKGGLKKTVTVDKSAGVPTKTTPSANSAASNAGSEPSSGGSTPAPAPKSSGGGGGGDLMAEVMAKRAKMKAAASQPKEESSAPTPAPTPAPTPAPTPSSTSFKPPQSFSKPATKTAAANKPPSPSLSAPLPSTVANEDLQSLKEEILTEVRKEIQKAKDEILEAIRASQH

Assays:
[1] = biological target: Oregon-Green-labelled actin monomers (OG-actin) (UniProt P68135 1-377, Oregon-Green (OG) label, position not stated); test: stopped-flow fluorescence kinetics
[2] = biological target: Oregon-Green-labelled actin monomers (OG-actin) (UniProt P68135 1-377, Oregon-Green (OG) label, position not stated); test: other fluorescence titration

Binder | kon [1] [M⁻¹ s⁻¹] | Kd [2] [nM]
B1 | 5.3e+07 | 
GRNALLGSIENFSKGGLKKTVT [DdGAB peptide (G-actin-binding site of Dictyostelium discoideum VASP)] |  | 630
GLAAAIAGAKLRKVSK [hGAB peptide (G-actin-binding site of human VASP)] |  | 10300
GRNALLSDISKGKKLKKTVT [WIP-WH2-peptide (WH2 core motif of WASP-interacting protein)] |  | 840
